Biological target: the molecule itself
Test: co-expression in CHO-3E7, gel analysis (FIG. 6)
Description: High level and high-throughput recombinant protein production by transient transfection of suspension-growing […] CHO-3E7 was performed. See Table 3 for construct boundaries of the two scaffolds described here: Albumin based heteromultimer 1 (ABH1) and Albumin based heteromultimer 2 (ABH2). Albumin based heteromultimer 2 comprises one disulfide bond between the two transporter polypeptides, while Albumin based heteromultimer 1 is formed entirely by non-covalent interactions. FIG. 6A provides SDS-PAGE (non-reducing) gel analysis of the two heteromultimer constructs (ABH1 and ABH2), after co-expression (different DNA transfection ratios are shown). WT full-length HSA is shown as control. As expected, ABH2 retains the disulfide linkage in non-reducing SDS-PAGE, with a MW roughly double the non-disulfide linked ABH1. FIG. 6B provides Native gel analysis of the two Albumin based heteromultimer constructs (ABH1 and ABH2), after co-expression (1:1 DNA level). WT full-length HSA is shown as control. […]
WT-HSA and the two Albumin based heteromultimers (ABH1 and ABH2) were expressed in CHO-3E7 cell line grown in suspension in FreeStyle F17 medium (Invitrogen) supplemented with 0.1% w/v pluronic and 4 mM glutamine. […] At 24-48 hours, GFP positive cells should be between 30-60% as determined by flow cytometry.

B1: Albumin based Transporter polypeptide 1-Ver 2 (other)
chain: DAHKSEVAHRFKDLGEENFKALVLIAFAQYLQQCPFEDHVKLVNEVTEFAKTCVADESAENCDKSLHTLFGDKLCTVATLRETYGEMADCCAKQEPERNECFLQHKDDNPNLPRLVRPEVDVMCTAFHDNEETFLKKYLYEIARRHPYFYAPELLFFAKRYKAAFTECCQAADKAACLLPKLDELRDEGKASSAKQRLKCASLQKFGERAFKAWAVARLSQRFPKAEFAEVSKLVTDLTKVHTECCHGDLLECADDRADLAKYICENQDSISSKLKECCEKPLLEKSHCIAEVENDEMPADLPSLAADFVESKDVCKNYAEAKDVFLGMFLYEYARA
notes: First chain of ABH2; also called F1; ABH2 segment 1:337
binding result: no binding

B2: Albumin based Transporter polypeptide 1-Ver 1 (other)
chain: DAHKSEVAHRFKDLGEENFKALVLIAFAQYLQQCPFEDHVKLVNEVTEFAKTCVADESAENCDKSLHTLFGDKLCTVATLRETYGEMADCCAKQEPERNECFLQHKDDNPNLPRLVRPEVDVMCTAFHDNEETFLKKYLYEIARRHPYFYAPELLFFAKRYKAAFTECCQAADKAACLLPKLDELRDEGKASSAKQRLKCASLQKFGERAFKAWAVARLSQRFPKAEFAEVSKLVTDLTKVHTECCHGDLLECADDRADLAKYICENQDSISSKLKECCEKPLLEKSHCIAEV
notes: also called ABH1 segment 1:293
binding result: no binding
